According to paper PMC8228714, “Structural Constraint of Osteopontin Facilitates Efficient Binding to CD44” (Biomolecules, 2021):

Assays:
[1] = target: Recombinant extracellular domain of CD44 (aa21–606), His- and SUMO-tags (Lifespan Biosciences); assay: ELISA; receptor (CD44v or integrin) plated on a high-binding 96-well plate, GST-OPN in solution 2 h at room temperature; 10 mM HEPES pH 7.4, 150 mM NaCl, 2 mM MnCl2, 0.05% Tween 20; detection with HRP-anti-GST; constants from double-reciprocal plots
[2] = target: truncated version of CD44v (MyBiosource); assay: as above
[3] = target: extracellular portion of integrin αVβ3 (R&D Systems) (UniProt P06756); assay: as above
[4] = target: T1, extracellular portion of integrin α9β1 (R&D Systems) (UniProt Q13797 30-977; P05556 21-728); assay: SPR; BIACORE 2000, CM5 chip; about 8000 RU of GST-OPN, CD44v or integrin α9β1 immobilised by amine coupling, BSA control flow cell; one protein in the flow, 50 μL/min, 120 s; 10 mM HEPES, 150 mM NaCl, pH 7.4, 0.05% Tween 20, 0.4 mM MnCl2, 25 °C; settings: both partners purified
T1 construct: also called α9β1 extracellular domain; source: bought: R&D Systems
T1 sequence (Q13797 30-977, chain 1 of 2): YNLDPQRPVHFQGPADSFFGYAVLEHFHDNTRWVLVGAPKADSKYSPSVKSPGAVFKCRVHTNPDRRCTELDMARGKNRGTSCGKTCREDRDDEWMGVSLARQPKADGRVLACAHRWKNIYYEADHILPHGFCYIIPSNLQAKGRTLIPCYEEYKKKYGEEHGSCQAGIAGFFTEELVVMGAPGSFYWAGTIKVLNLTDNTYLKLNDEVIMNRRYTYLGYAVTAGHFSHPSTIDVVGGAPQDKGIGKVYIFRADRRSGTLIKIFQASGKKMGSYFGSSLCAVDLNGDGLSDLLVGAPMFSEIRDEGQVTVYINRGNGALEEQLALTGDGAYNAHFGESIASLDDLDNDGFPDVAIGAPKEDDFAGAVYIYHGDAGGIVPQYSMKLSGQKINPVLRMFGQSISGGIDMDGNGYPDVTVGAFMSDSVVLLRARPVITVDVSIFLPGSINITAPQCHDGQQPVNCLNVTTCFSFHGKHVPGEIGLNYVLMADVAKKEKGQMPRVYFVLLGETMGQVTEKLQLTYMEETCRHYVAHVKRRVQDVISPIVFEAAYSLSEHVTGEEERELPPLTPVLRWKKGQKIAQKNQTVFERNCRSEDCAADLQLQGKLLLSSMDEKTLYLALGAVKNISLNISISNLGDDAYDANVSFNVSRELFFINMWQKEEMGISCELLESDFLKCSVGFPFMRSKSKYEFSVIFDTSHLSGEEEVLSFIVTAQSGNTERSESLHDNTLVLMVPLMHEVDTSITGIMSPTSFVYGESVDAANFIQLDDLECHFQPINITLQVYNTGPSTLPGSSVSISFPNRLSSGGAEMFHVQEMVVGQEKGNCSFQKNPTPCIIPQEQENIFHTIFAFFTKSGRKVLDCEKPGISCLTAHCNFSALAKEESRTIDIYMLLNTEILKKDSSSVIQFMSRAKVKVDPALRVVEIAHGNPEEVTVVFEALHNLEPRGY
T1 sequence (P05556 21-728, chain 2 of 2): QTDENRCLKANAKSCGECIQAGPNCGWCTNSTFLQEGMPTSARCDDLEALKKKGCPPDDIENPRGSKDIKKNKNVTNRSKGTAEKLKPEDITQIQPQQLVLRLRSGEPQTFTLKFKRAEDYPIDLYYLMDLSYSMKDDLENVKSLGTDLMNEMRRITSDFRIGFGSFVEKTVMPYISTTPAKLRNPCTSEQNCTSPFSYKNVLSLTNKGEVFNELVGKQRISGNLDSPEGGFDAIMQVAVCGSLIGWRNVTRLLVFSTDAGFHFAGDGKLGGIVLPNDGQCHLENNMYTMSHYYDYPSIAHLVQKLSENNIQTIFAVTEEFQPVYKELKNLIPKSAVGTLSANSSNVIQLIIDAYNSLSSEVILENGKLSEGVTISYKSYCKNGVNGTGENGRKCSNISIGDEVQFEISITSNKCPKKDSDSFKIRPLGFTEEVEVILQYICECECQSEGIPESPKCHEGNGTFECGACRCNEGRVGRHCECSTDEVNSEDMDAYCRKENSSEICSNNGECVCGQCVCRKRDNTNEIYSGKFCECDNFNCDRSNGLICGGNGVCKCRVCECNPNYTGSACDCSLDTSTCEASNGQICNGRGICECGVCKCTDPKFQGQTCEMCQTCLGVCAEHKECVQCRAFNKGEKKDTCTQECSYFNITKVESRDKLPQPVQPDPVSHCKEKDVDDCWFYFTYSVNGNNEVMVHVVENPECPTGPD

Sequence of truncated version of CD44v (MyBiosource) (P16070 21-742): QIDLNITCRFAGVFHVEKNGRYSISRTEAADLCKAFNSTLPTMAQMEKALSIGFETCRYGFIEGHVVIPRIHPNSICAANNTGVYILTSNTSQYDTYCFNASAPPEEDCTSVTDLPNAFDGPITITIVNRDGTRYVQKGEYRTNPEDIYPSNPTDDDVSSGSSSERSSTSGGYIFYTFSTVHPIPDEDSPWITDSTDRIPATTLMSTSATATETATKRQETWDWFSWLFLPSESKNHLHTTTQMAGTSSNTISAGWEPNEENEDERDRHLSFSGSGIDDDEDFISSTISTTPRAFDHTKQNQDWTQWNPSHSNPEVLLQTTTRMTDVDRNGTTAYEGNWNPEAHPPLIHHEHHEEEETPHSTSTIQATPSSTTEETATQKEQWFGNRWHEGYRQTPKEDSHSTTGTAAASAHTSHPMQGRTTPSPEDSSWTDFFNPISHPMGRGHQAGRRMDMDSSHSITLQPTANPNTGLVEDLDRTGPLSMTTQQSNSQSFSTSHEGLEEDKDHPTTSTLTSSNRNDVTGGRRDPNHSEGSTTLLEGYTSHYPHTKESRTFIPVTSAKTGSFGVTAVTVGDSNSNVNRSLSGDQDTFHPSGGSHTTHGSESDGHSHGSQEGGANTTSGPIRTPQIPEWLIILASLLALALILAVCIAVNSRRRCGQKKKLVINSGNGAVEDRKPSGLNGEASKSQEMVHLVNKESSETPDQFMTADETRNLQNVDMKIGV

Bacterial recombinant GST-OPNa (after deletion of the signal sequence) (from UniProt P10451-1 17-314) (ligand)
half-maximal binding concentration (CD44 titrated 0–1000 ng, OPN 125 ng) [1]: 95.5 ng
half-maximal binding concentration (CD44 titrated 0–1000 ng, OPN 250 ng) [1]: 60.9 ng
half-maximal binding concentration (CD44 titrated 0–1000 ng, OPN 500 ng) [1]: 107 ng
half-maximal binding concentration (CD44 titrated 0–1000 ng, OPN 1000 ng) [1]: 151 ng
half-maximal binding concentration (CD44 titrated 0–1000 ng, OPN 2000 ng) [1]: 123 ng
half-maximal binding concentration (CD44 titrated 0–1000 ng, OPN 4000 ng) [1]: 138 ng
half-maximal binding concentration (OPN titrated 125–500 ng, CD44 65 ng) [1]: 0.77 ng
half-maximal binding concentration (OPN titrated 125–500 ng, CD44 125 ng) [1]: 8.09 ng
half-maximal binding concentration (OPN titrated 125–500 ng, CD44 250 ng) [1]: 40.5 ng
half-maximal binding concentration (OPN titrated 125–500 ng, CD44 500 ng) [1]: 50.8 ng
half-maximal binding concentration (OPN titrated 125–500 ng, CD44 1000 ng) [1]: 60.3 ng
fold lower affinity than for LSBio CD44v [2]: 8 fold

GST-OPNb (ligand)
half-maximal binding concentration (OPN titrated 7.8–500 ng, aVb3 200 ng, taken from the row above) [3]: 502 ng

GST-OPNc (from UniProt P10451-3 17-287) (ligand)
half-maximal binding concentration (OPN titrated 7.8–500 ng, aVb3 200 ng, taken from the rows above) [3]: 314 ng

B1: extracellular portion of integrin αVβ3 (R&D Systems) (receptor)
chain 1: FNLDVDSPAEYSGPEGSYFGFAVDFFVPSASSRMFLLVGAPKANTTQPGIVEGGQVLKCDWSSTRRCQPIEFDATGNRDYAKDDPLEFKSHQWFGASVRSKQDKILACAPLYHWRTEMKQEREPVGTCFLQDGTKTVEYAPCRSQDIDADGQGFCQGGFSIDFTKADRVLLGGPGSFYWQGQLISDQVAEIVSKYDPNVYSIKYNNQLATRTAQAIFDDSYLGYSVAVGDFNGDGIDDFVSGVPRAARTLGMVYIYDGKNMSSLYNFTGEQMAAYFGFSVAATDINGDDYADVFIGAPLFMDRGSDGKLQEVGQVSVSLQRASGDFQTTKLNGFEVFARFGSAIAPLGDLDQDGFNDIAIAAPYGGEDKKGIVYIFNGRSTGLNAVPSQILEGQWAARSMPPSFGYSMKGATDIDKNGYPDLIVGAFGVDRAILYRARPVITVNAGLEVYPSILNQDNKTCSLPGTALKVSCFNVRFCLKADGKGVLPRKLNFQVELLLDKLKQKGAIRRALFLYSRSPSHSKNMTISRGGLMQCEELIAYLRDESEFRDKLTPITIFMEYRLDYRTAADTTGLQPILNQFTPANISRQAHILLDCGEDNVCKPKLEVSVDSDQKKIYIGDDNPLTLIVKAQNQGEGAYEAELIVSIPLQADFIGVVRNNEALARLSCAFKTENQTRQVVCDLGNPMKAGTQLLAGLRFSVHQQSEMDTSVKFDLQIQSSNLFDKVSPVVSHKVDLAVLAAVEIRGVSSPDHVFLPIPNWEHKENPETEEDVGPVVQHIYELRNNGPSSFSKAMLHLQWPYKYNNNTLLYILHYDIDGPMNCTSDMEINPLRIKISSLQTTEKNDTVAGQGERDHLITKRDLALSEGDIHTLGCGVAQCLKIVCQVGRLDRGKSAILYVKSLLWTETFMNKENQNHSYSLKSSASFNVIEFPYKNLPIEDITNSTLVTTNVTWGIQPAPMPV
chain 2: GPNICTTRGVSSCQQCLAVSPMCAWCSDEALPLGSPRCDLKENLLKDNCAPESIEFPVSEARVLEDRPLSDKGSGDSSQVTQVSPQRIALRLRPDDSKNFSIQVRQVEDYPVDIYYLMDLSYSMKDDLWSIQNLGTKLATQMRKLTSNLRIGFGAFVDKPVSPYMYISPPEALENPCYDMKTTCLPMFGYKHVLTLTDQVTRFNEEVKKQSVSRNRDAPEGGFDAIMQATVCDEKIGWRNDASHLLVFTTDAKTHIALDGRLAGIVQPNDGQCHVGSDNHYSASTTMDYPSLGLMTEKLSQKNINLIFAVTENVVNLYQNYSELIPGTTVGVLSMDSSNVLQLIVDAYGKIRSKVELEVRDLPEELSLSFNATCLNNEVIPGLKSCMGLKIGDTVSFSIEAKVRGCPQEKEKSFTIKPVGFKDSLIVQVTFDCDCACQAQAEPNSHRCNNGNGTFECGVCRCGPGWLGSQCECSEEDYRPSQQDECSPREGQPVCSQRGECLCGQCVCHSSDFGKITGKYCECDDFSCVRYKGEMCSGHGQCSCGDCLCDSDWTGYYCNCTTRTDTCMSSNGLLCSGRGKCECGSCVCIQPGSYGDTCEKCPTCPDACTFKKECVECKKFDRGALHDENTCNRYCRDEIESVKELKDTGKDAVNCTYKNEDDCVVRFQYYEDSSGKSILYVVEEPECPKGPD
notes: also called aVb3; source: bought: R&D Systems
binding result [4]: binds
